{"source": "paper PMC9600270", "about": "(Cancers, 2022)", "molecules": {"B1": {"name": "lactoferrin: human milk lactoferrin, high-affinity natural ligand of nucleolin (protein, UniProt P02788 20-710, looked up)", "Lactotransferrin": "GRRRSVQWCAVSQPEATKCFQWQRNMRKVRGPPVSCIKRDSPIQCIQAIAENRADAVTLDGGFIYEAGLAPYKLRPVAAEVYGTERQPRTHYYAVAVVKKGGSFQLNELQGLKSCHTGLRRTAGWNVPIGTLRPFLNWTGPPEPIEAAVARFFSASCVPGADKGQFPNLCRLCAGTGENKCAFSSQEPYFSYSGAFKCLRDGAGDVAFIRESTVFEDLSDEAERDEYELLCPDNTRKPVDKFKDCHLARVPSHAVVARSVNGKEDAIWNLLRQAQEKFGKDKSPKFQLFGSPSGQKDLLFKDSAIGFSRVPPRIDSGLYLGSGYFTAIQNLRKSEEEVAARRARVVWCAVGEQELRKCNQWSGLSEGSVTCSSASTTEDCIALVLKGEADAMSLDGGYVYTAGKCGLVPVLAENYKSQQSSDPDPNCVDRPVEGYLAVAVVRRSDTSLTWNSVKGKKSCHTAVDRTAGWNIPMGLLFNQTGSCKFDEYFSQSCAPGSDPRSNLCALCIGDEQGENKCVPNSNERYYGYTGAFRCLAENAGDVAFVKDVTVLQNTDGNNNEAWAKDLKLADFALLCLDGKRKPVTEARSCHLAMAPNHAVVSRMDKVERLKQVLLHQQAKFGRNGSDCPDKFCLFQSETKNLLFNDNTECLARLHGKTTYEKYLGPQYVAGITNLKKCSTSPLLEACEFLRK"}}, "key": {"[1]": {"test_system": "RD cells (cell surface nucleolin)", "experiment": "Lactoferrin competition of QD-F3 binding, RD", "assay_type": "cell-based", "details": "2 μM lactoferrin pretreatment 20 min, then 20 nM QD-F3 + 2 μM lactoferrin 1 h on ice, FACS"}, "[2]": {"test_system": "Rh30 cells (cell surface nucleolin)", "experiment": "Lactoferrin competition of QD-F3 binding, Rh30", "assay_type": "cell-based", "details": "2 μM lactoferrin pretreatment 20 min, then 20 nM QD-F3 + 2 μM lactoferrin 1 h on ice, FACS"}}, "data": [{"molecule": "B1", "values": [{"measurement": "QD-F3 binding upon co-incubation with excess lactoferrin", "setting": "[1]", "value": "clear decrease"}, {"measurement": "QD-F3 binding upon co-incubation with excess lactoferrin", "setting": "[2]", "value": "clear decrease"}]}]}
